This note sets out measurements from the supplement of paper PMC9112550, “Optimization of the antimicrobial peptide Bac7 by deep mutational scanning” (BMC Biology, 2022).

The data set deals with Escherichia coli TOP10. Put plainly: shrunken log2 fold change of peptide-encoding DNA abundance (4.5 h post-induction vs induction); higher = less antimicrobial activity (less host growth inhibition). Particulars: time post-induction: 4.5 h; library: site-saturation at positions 5, 18, 19, 20.
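Note: peptides expressed intracellularly from a pBAD plasmid library in pooled LB shake-flask culture, induced with 0.3% L-arabinose, DNA abundance read by NGS, three biological replicates, DESeq2 with apeglm shrinkage.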

Consider RRIRKRPPRLPRPRPRPYDWPRP, for which the “shrunken log2 fold change” value was -0.0468. For the sequence RRIRYRPPRLPRPRPRPITEPRP, the “shrunken log2 fold change” value was -0.101.

Turning to RRIRPRPPRLPRPRPRPYDPPRP, the “shrunken log2 fold change” value is -0.301. As for RRIRSRPPRLPRPRPRPKTTPRP, the figure is 0.103; as for RRIRIRPPRLPRPRPRPYFKPRP, -0.511; as for RRIRRRPPRLPRPRPRPWKCPRP, -0.0487. With RRIRYRPPRLPRPRPRPVVGPRP the figure was -0.172; with RRIRLRPPRLPRPRPRPCPHPRP, -0.0552. On to RRIRYRPPRLPRPRPRPQAPPRP, for which the “shrunken log2 fold change” value is -0.0309. With RRIRVRPPRLPRPRPRPAQPPRP the figure was 0.228; with RRIRERPPRLPRPRPRPIYKPRP, -0.305; with RRIRERPPRLPRPRPRPEDIPRP, -0.00136. As for RRIRNRPPRLPRPRPRPIHVPRP, the figure is -0.224. With RRIRNRPPRLPRPRPRPIASPRP the figure was 0.0215; with RRIRRRPPRLPRPRPRPNDFPRP, -0.189; with RRIRDRPPRLPRPRPRPCNSPRP, -0.0276. Regarding RRIRQRPPRLPRPRPRPTTDPRP, the “shrunken log2 fold change” value was -0.0492. As for RRIRPRPPRLPRPRPRPFSFPRP, the figure is -0.0166; as for RRIRQRPPRLPRPRPRPQYTPRP, -0.249. As for RRIRGRPPRLPRPRPRPVKQPRP, the figure is 0.216; as for RRIRHRPPRLPRPRPRPKGWPRP, 0.103. For the sequence RRIRCRPPRLPRPRPRPTGNPRP, the “shrunken log2 fold change” value was 0.048. With RRIRVRPPRLPRPRPRPVGPPRP the figure was 0.0843; with RRIRARPPRLPRPRPRPPICPRP, -0.0154. As for RRIRTRPPRLPRPRPRPGGEPRP, the figure is 0.443.

As for RRIRMRPPRLPRPRPRPKAVPRP, the “shrunken log2 fold change” value came out at 0.0216. In the case of RRIRQRPPRLPRPRPRPRPPPRP, the “shrunken log2 fold change” value was 1.08.

Consider RRIRWRPPRLPRPRPRPGEDPRP, for which the “shrunken log2 fold change” value amounted to 0.381. With RRIRNRPPRLPRPRPRPSFYPRP, the “shrunken log2 fold change” value was -0.658.

As to RRIRARPPRLPRPRPRPWRSPRP, the “shrunken log2 fold change” value came to 0.143. With RRIRWRPPRLPRPRPRPHVYPRP the figure was -0.132. Regarding RRIRFRPPRLPRPRPRPMMVPRP, the “shrunken log2 fold change” value is -0.112.

Regarding RRIRKRPPRLPRPRPRPEEHPRP, the “shrunken log2 fold change” value turned out to be 2.61. With RRIRCRPPRLPRPRPRPDCCPRP the figure was -0.206; with RRIRNRPPRLPRPRPRPHTHPRP, -0.438.

In the case of RRIRIRPPRLPRPRPRPYDMPRP, the “shrunken log2 fold change” value was -0.19.

For the sequence RRIRTRPPRLPRPRPRPAGCPRP, the “shrunken log2 fold change” value stood at 0.316. Consider RRIRQRPPRLPRPRPRPYMVPRP, for which the “shrunken log2 fold change” value was -0.176.

RRIRSRPPRLPRPRPRPKVIPRP: the “shrunken log2 fold change” value is -0.0209. With RRIRGRPPRLPRPRPRPCEFPRP the figure was 0.0669; with RRIRCRPPRLPRPRPRPMAAPRP, 0.476. As to RRIRSRPPRLPRPRPRPKSEPRP, the “shrunken log2 fold change” value came to 0.0504. As for RRIRARPPRLPRPRPRPRQMPRP, the figure is 1.2; as for RRIRHRPPRLPRPRPRPHVHPRP, -0.201. With RRIRIRPPRLPRPRPRPETIPRP the figure was -0.115; with RRIRARPPRLPRPRPRPMRPPRP, 0.342; with RRIRGRPPRLPRPRPRPQTLPRP, 0.614. For RRIRIRPPRLPRPRPRPHWVPRP, the “shrunken log2 fold change” value is -0.0146. On to RRIRNRPPRLPRPRPRPPGRPRP, for which the “shrunken log2 fold change” value is 0.769. As to RRIRQRPPRLPRPRPRPYTTPRP, the “shrunken log2 fold change” value was -0.0148.

Regarding RRIRYRPPRLPRPRPRPLDHPRP, the “shrunken log2 fold change” value was -0.119. RRIRYRPPRLPRPRPRPRTTPRP: the “shrunken log2 fold change” value is -0.011.

Turning to RRIRYRPPRLPRPRPRPLRDPRP, the “shrunken log2 fold change” value amounted to 0.0739. For RRIRNRPPRLPRPRPRPWALPRP, the “shrunken log2 fold change” value was -0.0675. With RRIRWRPPRLPRPRPRPLMCPRP the figure was 0.117. As to RRIRVRPPRLPRPRPRPDTWPRP, the “shrunken log2 fold change” value is -0.407. With RRIRRRPPRLPRPRPRPGKQPRP the figure was 0.254; with RRIRPRPPRLPRPRPRPNELPRP, -0.313. With RRIRPRPPRLPRPRPRPDLLPRP the figure was -0.0805; with RRIRRRPPRLPRPRPRPVCYPRP, 0.103; with RRIRSRPPRLPRPRPRPRNHPRP, -0.0799. Turning to RRIRKRPPRLPRPRPRPKLHPRP, the “shrunken log2 fold change” value stood at 0.129.

For the sequence RRIRERPPRLPRPRPRPWWDPRP, the “shrunken log2 fold change” value was -0.0282. As for RRIRYRPPRLPRPRPRPQSRPRP, the “shrunken log2 fold change” value was -0.17.

On to RRIRARPPRLPRPRPRPMWIPRP, for which the “shrunken log2 fold change” value came out at 0.249.

As for RRIRERPPRLPRPRPRPFMNPRP, the “shrunken log2 fold change” value was -0.00101. As for RRIRNRPPRLPRPRPRPKACPRP, the “shrunken log2 fold change” value is -0.00921. With RRIRMRPPRLPRPRPRPYYDPRP the figure was 0.000459; with RRIRFRPPRLPRPRPRPHMPPRP, -0.0659. As for RRIRRRPPRLPRPRPRPYKNPRP, the figure is -0.47; as for RRIRLRPPRLPRPRPRPHNSPRP, -0.492. RRIRVRPPRLPRPRPRPRQWPRP: the “shrunken log2 fold change” value was determined as 0.236. As for RRIRSRPPRLPRPRPRPAWQPRP, the figure is 0.0367; as for RRIRQRPPRLPRPRPRPMCCPRP, 0.0301; as for RRIRVRPPRLPRPRPRPYAQPRP, 0.0393. As for RRIRCRPPRLPRPRPRPLAGPRP, the figure is 0.153. As for RRIRIRPPRLPRPRPRPLTWPRP, the figure is -0.585; as for RRIRVRPPRLPRPRPRPYRIPRP, 0.0112.

As for RRIRYRPPRLPRPRPRPLQHPRP, the “shrunken log2 fold change” value is -0.688. As for RRIRCRPPRLPRPRPRPIIFPRP, the figure is -0.726; as for RRIRWRPPRLPRPRPRPNKAPRP, -0.00104; as for RRIRSRPPRLPRPRPRPYANPRP, -0.185. As for RRIRIRPPRLPRPRPRPRLVPRP, the figure is 0.22. As to RRIRSRPPRLPRPRPRPIPMPRP, the “shrunken log2 fold change” value was -0.0186. Regarding RRIRERPPRLPRPRPRPLYIPRP, the “shrunken log2 fold change” value was -0.668. With RRIRPRPPRLPRPRPRPDEPPRP the figure was 0.0641; with RRIRERPPRLPRPRPRPPWCPRP, 0.217; with RRIRPRPPRLPRPRPRPEWWPRP, 0.0468. With RRIRQRPPRLPRPRPRPTMTPRP the figure was -0.0845; with RRIRCRPPRLPRPRPRPMMPPRP, -0.11; with RRIRRRPPRLPRPRPRPTHSPRP, 0.775.

Regarding RRIRERPPRLPRPRPRPAHAPRP, the “shrunken log2 fold change” value worked out at 0.117. With RRIRVRPPRLPRPRPRPISDPRP the figure was -0.0883; with RRIRFRPPRLPRPRPRPTVLPRP, -0.0624. As for RRIRSRPPRLPRPRPRPAEYPRP, the figure is -0.0544; as for RRIRWRPPRLPRPRPRPRTSPRP, -0.0212. In the case of RRIRWRPPRLPRPRPRPEHAPRP, the “shrunken log2 fold change” value was 0.921. On to RRIRTRPPRLPRPRPRPVKYPRP, for which the “shrunken log2 fold change” value amounted to 0.0856. For the sequence RRIRRRPPRLPRPRPRPRESPRP, the “shrunken log2 fold change” value was 0.59. With RRIRMRPPRLPRPRPRPMCAPRP the figure was 1.57.

With RRIRARPPRLPRPRPRPLETPRP, the “shrunken log2 fold change” value amounted to 0.9.

On to RRIRHRPPRLPRPRPRPSFAPRP, for which the “shrunken log2 fold change” value came to 0.0263. With RRIRRRPPRLPRPRPRPSFRPRP the figure was -0.0185.

Take RRIRWRPPRLPRPRPRPDNAPRP: the “shrunken log2 fold change” value is -0.000159. As for RRIRARPPRLPRPRPRPYMGPRP, the “shrunken log2 fold change” value was determined as 0.0124. RRIRRRPPRLPRPRPRPNFGPRP: the “shrunken log2 fold change” value was found to be 0.105.

With RRIRWRPPRLPRPRPRPFMVPRP, the “shrunken log2 fold change” value was -0.371.

For the sequence RRIRVRPPRLPRPRPRPTCVPRP, the “shrunken log2 fold change” value was -0.0916.

With RRIRKRPPRLPRPRPRPVYTPRP, the “shrunken log2 fold change” value was -0.356. On to RRIRTRPPRLPRPRPRPEAIPRP, for which the “shrunken log2 fold change” value was -0.00172.

Consider RRIRPRPPRLPRPRPRPWYPPRP, for which the “shrunken log2 fold change” value was -0.119. Regarding RRIRTRPPRLPRPRPRPTDMPRP, the “shrunken log2 fold change” value was -0.0264. With RRIRSRPPRLPRPRPRPYMWPRP the figure was -0.744; with RRIRVRPPRLPRPRPRPQEWPRP, -0.0187; with RRIRIRPPRLPRPRPRPIDKPRP, -0.364. Take RRIRNRPPRLPRPRPRPPSTPRP: the “shrunken log2 fold change” value is 0.0609. With RRIRSRPPRLPRPRPRPNHDPRP the figure was -0.69; with RRIRFRPPRLPRPRPRPIFVPRP, 0.108; with RRIRYRPPRLPRPRPRPFNVPRP, 0.0019. With RRIRVRPPRLPRPRPRPFESPRP the figure was -0.0298; with RRIRARPPRLPRPRPRPIHRPRP, -0.26. As for RRIRWRPPRLPRPRPRPDCCPRP, the “shrunken log2 fold change” value is 0.777. As for RRIRIRPPRLPRPRPRPDKDPRP, the figure is -0.0993; as for RRIRHRPPRLPRPRPRPLFRPRP, 0.0546; as for RRIRSRPPRLPRPRPRPALLPRP, 0.42.
